Assays:
DsRmCh [1] = molecular target: DsRmCh (UniProt Q9U6Y8); assay: SEC; Superdex 75 10/300, 100 μl of purified protein, absorbance at 575 nm
DsRmCh [2] = molecular target: DsRmCh (UniProt Q9U6Y8); assay: AUC; sedimentation velocity, 40,000 RPM overnight, PBS pH 7.4, sample diluted to A575 of 0.5, c(m) distribution in Sedfit
DsRmChΔ5 = DsRmChΔ5 (UniProt Q9U6Y8); assay: as above

Substance DsRmCh (from UniProt Q9U6Y8 1-225) has a stoichiometry N (DsRmCh [1]) of 4 and a stoichiometry N (DsRmCh [2]) of 4.

For DsRmChΔ5 (from UniProt Q9U6Y8 1-220), the stoichiometry N (DsRmChΔ5) was 4.
